Laboratory results as given in US10174106B2, “Anti-neurotensin long fragment antibodies and uses thereof” (INSERM (INSTITUT NATIONAL DE LA SANTÉ ET DE LA RECHERCHE …, priority 2014, dated 2019).

How the values were obtained:
[1] = system: LNM-R tumors; assay: Cisplatin test, LNM-R xenograft; format: in vivo, NMRI nu/nu mice
Description: (§1) Cisplatin test, 1×10^6 LMN-R cells and 1×10^6 R-SI NTSR1 were subcutaneously inoculated in NMRI nu/nu mice, LMN-R in the left flank and R-SI NTSR1 in the right flank. When tumors generated by LMN-R reached an average volume of 95 mm^3, mice were randomized in 5 groups of 8 to 10 mice. Group 1 was administered with PBS, group 2 with antibody FLp26-8.2 (i.p. every other day, 15 mg/kg) for total of 13 times and group 3 with mouse IgG (i.p. every other day, 15 mg/kg). Group 4 was administered with PBS and cisplatin (1 mg/kg at day 1,3 5 7, 15, 17, and 19) and groups 5 with antibody FLp26-8.2 (i.p. every other day, 15 mg/kg) and cisplatin (1 mg/kg at day 1,3 5 7, 15, 17, and 19). The volume of tumor was measured every other day.

[2] = system: R-SI NTSR1 tumors; assay: Cisplatin test, R-SI NTSR1 xenograft; format: in vivo, NMRI nu/nu mice; settings: cisplatin 1 mg/kg day 1,3,5,7,15,17,19
Description: as §1

[3] = system: R-SI NTSR1 tumors; assay: Tumor xenograft, R-SI NTSR1 cells (LNM-R with NTSR1 sh-RNA), right flank; format: in vivo, NMRI nu/nu mice; settings: 15 mg/kg i.p. every other day; vs PBS; same mice
Description: (§2) 1×10^6 LMN-R cells and 1×10^6 R-SI NTSR1 were subcutaneously inoculated in NMRI nu/nu mice, LMN-R in the left flank and R-SI NTSR1 in the right flank. When tumors generated by LMN-R reached an average volume of 40 mm^3, mice were randomized in 2 groups, then administered antibody FLp26-8.2 (i.p. every other day, 15 mg/kg) for total 8 times. PBS was used as the vehicle control. The volume of tumor was measured daily.

[4] = system: Hep-R1b cells; assay: Collagen invasion assay, Hep-R1b cells (Hep3B transfected with NTSR1); format: cell-based; settings: expressing NTS and NTSR1, exposed to antibody
[5] = system: Hep-R1a cells; assay: Collagen invasion assay, Hep-R1a cells (Hep3B transfected with NTSR1); format: cell-based; settings: expressing NTS and NTSR1, exposed to antibody
Description: (§3) The cell culture insert (8 μm, Beckton Dickinson®) was coated with type I collagen (100 μl/well, 4×10^2 μg/ml, Sigma®) at 37° C. 24 h before the assay. 1 million MCF, NTS-h, Hep 3B, HepR1a, and HepR2b cells were seeded in the insert with 250 μl of serum free medium in presence or absence of 7 μg antibodies FLp26-8.2. Outside the insert, 750 μl medium with 10% FCS was added in the well as chemoattractant. After 48 h of incubation, the non-invading cells and collagen are removed from the upper surface of the membrane by scrubbing with a cotton swab. Invading cells (those adhering to the bottom surface of the membrane) were fixed and stained with the Kwif diff stain kit (Thermo®) and the number of stained cells were counted with an inverted microscope at 200× magnification.

[6] = system: MDA Si2 tumors; assay: Tumor xenograft, MDA Si2 cells (sh NTSR1), right flank; format: in vivo, NMRI nu/nu mice; settings: 15 mg/kg i.p. every other day, vs PBS
Description: (§4) 3×10^6 MDA-MB 231 cells and 3×10^6 MDA si2 were subcutaneously inoculated in 100 μl of matrigel the left flank and the right flank of the NMRI nu/nu mice, respectively. When tumors generated by MDA reached an average volume of 50 mm^3, mice were randomized in 2 groups, then administered antibody FLp26-8.2 (i.p. every other day, 15 mg/kg) for total 12 times. PBS was used as the vehicle control.

[7] = system: LNM-R tumors; assay: Tumor xenograft, LNM-R lung cancer cells (NTS and NTSR1 expressing), left flank; format: in vivo, NMRI nu/nu mice; settings: 15 mg/kg i.p. every other day
Description: as §2

[8] = system: MDA-MB231 tumors; assay: Tumor xenograft, MDA-MB 231 breast cancer cells, left flank; format: in vivo, NMRI nu/nu mice; settings: 15 mg/kg i.p. every other day
Description: as §4

[9] = system: NTS-h cells (MCF-7 overexpressing NTS); assay: Type I collagen invasion assay, MCF-7 cells overexpressing NTS (NTS-h); format: cell-based; settings: NTS-overexpressing clone NTS-h; EGF 100 ng/mL; 7 μg antibody; 48 h
Description: The mouse #4 was selected. 5 clones were obtained. Clones 1-6, 7-12, 8-2, 13-1, and 16-12 were tested. […] The experiments were repeated twice.
as §3

[10] = system: MCF-7 cells; assay: Type I collagen invasion assay, MCF-7 cells; format: cell-based; settings: parental MCF-7; EGF 100 ng/mL; 7 μg antibody; 48 h
Description: as §3

[11] = system: CHO-NTSR1 cells; assay: Cell proliferation of CHO-NTSR1 cells treated with NTS or LNM-R conditioned media; format: cell-based; settings: 2.8 μg antibody, 60% without antibody
Description: Cell Proliferation 20 000 CHO-NTSR1 cells were seeded in 48 well dishes, in 200 ul media 10% with FCS. […] Cells were treated for 40 h in 200 μl media with 2.5% FCS. Cellular proliferation was evaluated by counting using Beckman Coulter's cell counting.

Molecule	tumor growth rates ([1]; cisplatin 1 mg/kg day 1,3,5,7,15,17,19, IgG 15 mg/kg i.p. every other day, compared to PBS)	tumor size [2]	growth rate [3]	size of the tumor [3]	invasive rate of the cells [4]	tumor size ([1]; FLp26-8.2 15 mg/kg i.p. every other day, with or without cisplatin 1 mg/kg)	invasive rate of the cells [5]	doubling time [6]	growth rate [6]	tumor size [6]	tumor size as compared to controls ([7]; 8 times, vs PBS) [times smaller]	growth from D1 ([7]; PBS 24.68±4.05) [fold]	doubling time after 16 days of treatment ([7]; PBS control 3.43±0.34) [days]	tumor growth ([8]; 24 days, compared to PBS)	growth rate from D1 ([8]; PBS 4.4±0.33) [fold]	doubling time after 24 days of treatment ([8]; control 11.63±1) [days]	induction of invasiveness induced or not by EGF [9]	induction of invasiveness induced or not by EGF [10]	cellular growth inhibition with antibody added ([11]; CM (LNM-R conditioned media) treated cells) [%]	cellular growth inhibition with antibody added ([11]; NTS treated cells (10^-7 M)) [%]
N.N.[Cl][Pt][Cl] [cisplatin, reference compound]	not altered	decreased																		
FLp26-8.2: NTS monoclonal antibody directed against NTS long fragment; VH SEQ ID NO:1, VL SEQ ID NO:5 (antibody, V domains shown, Synthetic VH Sequence; Synthetic VL sequence) VH: QIQLVQSGPELKKPGETVKISCKASGYTFTNYGMNWVKQAPGKGLKWMGWITTNTGEPTYAEEFKGRFAFSLETSASTAYLQINNLKNEDTATYFCARRAFAMDYWGQGTSVTVSS VL: DIVMTQAAPSVPVTPGESVSISCRSSKSLLHSNGNTYLYWFLQRPGQSPQLLIYRMSNLASGVPDRFSGSGSGTAFTLRISRVEAEDVGVYYCMQHLEYPYTFGGGTKLEIK			not different	not different	reduced	smaller	more drastic	no difference	no difference	no difference	2.6	5.92±0.99	5.96 ± 0.55	strong reduction	2.1±0.18	55.5 ± 32	inhibited	only in the NTS-overexpressing clones	15	48
